Blank lines part the entries; values can stand above or below the substance they belong to.
Experiments:
[1] = biological target: FAM-labelled unphosphorylated SCIMP Y96 peptide (amino acids 90-107) (mouse); assay: other fluorescence titration; FAM-labelled SCIMP Y96 peptides (aa 90-107) titrated with unlabelled TLR4-TIR; 25 °C, 30 mM Tris pH 7.4, 150 mM NaCl, 1 mM dithiothreitol; curve fit (Grafit)
[2] = biological target: FAM-labelled phosphorylated SCIMP Y96 peptide (amino acids 90-107) (mouse); assay: as above
TLR4 TIR domain, 670-835 = TLR4 TIR domain, 670-835 (UniProt Q9QUK6); assay: fluorescence titration of FAM-labelled peptide; conditions: reference: unphosphorylated Y96 peptide; sites Y96
TLR4 = TLR4 (UniProt Q9QUK6); assay: co-immunoprecipitation of SCIMP, TLR4 blot; conditions: reference: wild type SCIMP; sites Y96

- Kd [1]: > 2.5 µM
- Kd [2]: 0.159 µM
Substance: His-TLR4-TIR (cytoplasmic TIR domain of mouse TLR4, amino acids 670-835) (from UniProt Q9QUK6 670-835) (domain or fragment)

- KD (TLR4 TIR domain, 670-835): stronger; reference >2.5 μM
Substance: SCIMP 90-107 (from UniProt Q3UU41) pY96 peptide

- binding against the reference (TLR4): lost
Substance: SCIMP (from UniProt Q3UU41) Y96F

Source: paper PMC5253658
